From patent US20120178139A1

Target: mouse glycophorin-A on mouse erythrocytes (mouse) (UniProt P14220)
Assay: in vivo, flow cytometry of circulating erythrocytes after intravenous administration

cell-surface half-life: 2.2 h
Substance: 8-arm PEG-ERY1 (8-arm PEG-ERY1-ALEXAFLUOR647)
